B1: CLPTM1 (parent)
chain: LGCYAVYSLLYLEHKGWYSWVLSM
B2: CIB1 (parent)
chain: DLSRLVNCLTGEGEDTRLSASEMK

Variants of: B1
Assay: protein stability index of a GFP-peptide fusion (GPS, HEK-293T) (PSI 1-6); higher = more stable
Conditions: c terminus: a fixed tail appended
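Note: lentivirally expressed fusions sorted by FACS into six bins by GFP to DsRed ratio, PSI derived from sequencing read proportions per bin multiplied by bin number.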

| Variant | protein stability index |
| --- | --- |
| LGCYAVYSLLYLEHKGWYSWVLSI | 2.67 |
| LGCYAVYSLLYLEHKGWYSWVLSK | 3.6 |
| LGCYAVYSLLYLEHKGWYSWVLSL | 2.6 |
| LGCYAVYSLLYLEHKGWYSWVLSN | 2.39 |
| LGCYAVYSLLYLEHKGWYSWVLSP | 3.83 |
| LGCYAVYSLLYLEHKGWYSWVLSQ | 3.62 |
| LGCYAVYSLLYLEHKGWYSWVLSR | 2.3 |
| LGCYAVYSLLYLEHKGWYSWVLSS | 2.46 |
| LGCYAVYSLLYLEHKGWYSWVLST | 2.61 |
| LGCYAVYSLLYLEHKGWYSWVLSV | 3.57 |
| LGCYAVYSLLYLEHKGWYSWVLSW | 3.77 |
| LGCYAVYSLLYLEHKGWYSWVLSY | 2.41 |

Variants of: B2
Assay: as above
Conditions: c terminus: a fixed tail appended

| Variant | protein stability index |
| --- | --- |
| ALSRLVNCLTGEGEDTRLSASEMK | 2.84 |
| CLSRLVNCLTGEGEDTRLSASEMK | 2.65 |
| FLSRLVNCLTGEGEDTRLSASEMK | 2.77 |
| GLSRLVNCLTGEGEDTRLSASEMK | 3.69 |
| HLSRLVNCLTGEGEDTRLSASEMK | 3.25 |
| ILSRLVNCLTGEGEDTRLSASEMK | 2.3 |
| KLSRLVNCLTGEGEDTRLSASEMK | 4.18 |
| LLSRLVNCLTGEGEDTRLSASEMK | 2.04 |
| MLSRLVNCLTGEGEDTRLSASEMK | 2.49 |
| NLSRLVNCLTGEGEDTRLSASEMK | 2.89 |
| PLSRLVNCLTGEGEDTRLSASEMK | 4.33 |
| QLSRLVNCLTGEGEDTRLSASEMK | 3.56 |
| RLSRLVNCLTGEGEDTRLSASEMK | 3.68 |
| SLSRLVNCLTGEGEDTRLSASEMK | 2.8 |
| TLSRLVNCLTGEGEDTRLSASEMK | 2.06 |
| VLSRLVNCLTGEGEDTRLSASEMK | 1.95 |
| YLSRLVNCLTGEGEDTRLSASEMK | 2.43 |
| DASRLVNCLTGEGEDTRLSASEMK | 4.39 |
| DCSRLVNCLTGEGEDTRLSASEMK | 3.87 |
| DDSRLVNCLTGEGEDTRLSASEMK | 4.32 |
| DESRLVNCLTGEGEDTRLSASEMK | 5.67 |

| Variant | protein stability index |
| --- | --- |
| DFSRLVNCLTGEGEDTRLSASEMK | 3.85 |
| DGSRLVNCLTGEGEDTRLSASEMK | 5.22 |
| DHSRLVNCLTGEGEDTRLSASEMK | 5.29 |
| DISRLVNCLTGEGEDTRLSASEMK | 2.82 |
| DKSRLVNCLTGEGEDTRLSASEMK | 4.56 |
| DMSRLVNCLTGEGEDTRLSASEMK | 5.13 |
| DNSRLVNCLTGEGEDTRLSASEMK | 4.22 |
| DPSRLVNCLTGEGEDTRLSASEMK | 5.35 |
| DQSRLVNCLTGEGEDTRLSASEMK | 4.6 |
| DSSRLVNCLTGEGEDTRLSASEMK | 5 |
| DWSRLVNCLTGEGEDTRLSASEMK | 2.89 |
| DYSRLVNCLTGEGEDTRLSASEMK | 3.82 |
| DLCRLVNCLTGEGEDTRLSASEMK | 2.98 |
| DLERLVNCLTGEGEDTRLSASEMK | 2.78 |
| DLFRLVNCLTGEGEDTRLSASEMK | 2.9 |
| DLGRLVNCLTGEGEDTRLSASEMK | 3.72 |
| DLIRLVNCLTGEGEDTRLSASEMK | 1.2 |
| DLKRLVNCLTGEGEDTRLSASEMK | 3.27 |
| DLLRLVNCLTGEGEDTRLSASEMK | 2.2 |
| DLMRLVNCLTGEGEDTRLSASEMK | 3.1 |
| DLNRLVNCLTGEGEDTRLSASEMK | 2.39 |

| Variant | protein stability index |
| --- | --- |
| DLQRLVNCLTGEGEDTRLSASEMK | 2.84 |
| DLRRLVNCLTGEGEDTRLSASEMK | 2.43 |
| DLTRLVNCLTGEGEDTRLSASEMK | 2.32 |
| DLWRLVNCLTGEGEDTRLSASEMK | 1.38 |
| DLYRLVNCLTGEGEDTRLSASEMK | 2.79 |
| DLSALVNCLTGEGEDTRLSASEMK | 3.8 |
| DLSCLVNCLTGEGEDTRLSASEMK | 3.65 |
| DLSELVNCLTGEGEDTRLSASEMK | 3.68 |
| DLSFLVNCLTGEGEDTRLSASEMK | 3.88 |
| DLSGLVNCLTGEGEDTRLSASEMK | 3.8 |
| DLSHLVNCLTGEGEDTRLSASEMK | 3.96 |
| DLSILVNCLTGEGEDTRLSASEMK | 2.48 |
| DLSKLVNCLTGEGEDTRLSASEMK | 3.12 |
| DLSLLVNCLTGEGEDTRLSASEMK | 3.47 |
| DLSMLVNCLTGEGEDTRLSASEMK | 2.98 |
| DLSNLVNCLTGEGEDTRLSASEMK | 2.39 |
| DLSPLVNCLTGEGEDTRLSASEMK | 3.66 |
| DLSQLVNCLTGEGEDTRLSASEMK | 2.27 |
| DLSTLVNCLTGEGEDTRLSASEMK | 4.46 |
| DLSVLVNCLTGEGEDTRLSASEMK | 2.01 |
| DLSWLVNCLTGEGEDTRLSASEMK | 3.45 |

| Variant | protein stability index |
| --- | --- |
| DLSYLVNCLTGEGEDTRLSASEMK | 2.85 |
| DLSRAVNCLTGEGEDTRLSASEMK | 3.99 |
| DLSRCVNCLTGEGEDTRLSASEMK | 3.35 |
| DLSRDVNCLTGEGEDTRLSASEMK | 4.39 |
| DLSRFVNCLTGEGEDTRLSASEMK | 2.49 |
| DLSRGVNCLTGEGEDTRLSASEMK | 5 |
| DLSRHVNCLTGEGEDTRLSASEMK | 3.23 |
| DLSRKVNCLTGEGEDTRLSASEMK | 4.53 |
| DLSRPVNCLTGEGEDTRLSASEMK | 5.06 |
| DLSRQVNCLTGEGEDTRLSASEMK | 4.54 |
| DLSRRVNCLTGEGEDTRLSASEMK | 2.87 |
| DLSRTVNCLTGEGEDTRLSASEMK | 3.61 |
| DLSRVVNCLTGEGEDTRLSASEMK | 4 |
| DLSRYVNCLTGEGEDTRLSASEMK | 2.27 |
| DLSRLCNCLTGEGEDTRLSASEMK | 3.96 |
| DLSRLDNCLTGEGEDTRLSASEMK | 4.1 |
| DLSRLENCLTGEGEDTRLSASEMK | 2.91 |
| DLSRLGNCLTGEGEDTRLSASEMK | 2.36 |
| DLSRLINCLTGEGEDTRLSASEMK | 3.25 |

Source: the supplement of paper PMC10567573
